assay: yeast display, Sf9 membrane polyspecificity reagent, FACS + sequencing; frameworks hold sequencing errors
How it was run: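 Sorting gates, low and high (top ~1%), were placed on anti-HA fluorescence to track expression and on streptavidin fluorescence to track reagent binding. A clone's polyreactivity label is taken from the gate it came out of. The reagent was 10% biotinylated, detergent-solubilized Sf9 membrane, applied for 1 hour at 4 °C to galactose-induced yeast display cells.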

| Sequence | polyreactivity (PSR sort gate) |
| --- | --- |
| QVQLVETGGGLVQAGGTLRLSCAASGRTFSRNAMGCDRPAPGKERELVAAITSGGGTYYADSVKGRFTISRDNAKNTVYLQMNSLKPEDTAVYYCNKKTSAGRVDYWGQGTQVTVSS | high polyreactivity |
| QVQLVETGGGLVQAGGTLRLSCADSGSIYEDNAKGWYRQAPGKERELDAAITWSGDSTYYADSVKGRFTISRDTEKNTVYLQMNSLKPEDTAVYYCNTYRIFCYSRYYAGYDYWGQGTQVTVSS | low polyreactivity |
| QVQLVETGRGLVQAGGSLRISCAPCGFTFWRNAMGGYRQAPGKERELVAAINWSGGSPYYADSVKGRFTISRDNAMNTVYLQINSRKADDTAVYYCNRRGQYTFWPIHEYWGQGTQVTVSS | high polyreactivity |
| QVQLVETGRGLVQAGGSLRLICAASGRTFGYYAMGWYRQAPGKEREFVAAISHSAGSTSYADSVKGRFTISRDNAKNTVYLQMNSLKPEDTAVFYFAAEICYLSVPRYDYWGQGTQVTVSS | low polyreactivity |
| QVQLVETGRGLVQAGGSLRLSCAASGLTFKFNAMGWYRQAPGKEREFVAAISRSGGRTYYAESVKGRFTISRDNAKNTVYFQMNSLKPEDTAVYFCADEEIVYYPVLFEYDYWGQGTQVTASS | high polyreactivity |
| QVQLVETGRGLVQAGGSLRLSCAHSGRTFFSYAMGWYRQAPGKEREFVAAITGGGTYYADSVKRRFTISSDNAKNTVYLHMNSLKPEDTAVYYCAAAKRGTDYLSSFWMDYWGQVTQVTVSS | low polyreactivity |
| QVQLVETGVGIVQAGGSLRLSCASSGSNCPLYAMGWYRQAPGKEREFVAAIRWIGGSTYYADSVKRRFTNSRDYAKNSVYLQMISLKPVDTAVYYCAAVYVVSAFDYWGQGTQVSVSS | low polyreactivity |
| QVQLVETGVGLVKAGGSLRLSSAASGYIFYYYAMGWYRQERGKERELVAAISTSDTRTFYADSVKGRFSISRDNAKNTVYLQMNSLKPEDTAVYYCAASLYICGPNYGYEYWGLGTQVTVSS | low polyreactivity |
| QVQLVETGVGLVQAGGSLRLSCAASGLTFPNYDMGWYRQAPGKEMELVAAISSSGGSTYYADSVKGRFTISRDNAKNTVYLQMNSLKPEDTAVYYCATEWSYYNYGYDYWGQGTQVTVSS | low polyreactivity |
| QVQLVETGVGLVQAGGSLRLSSAASGSIFFTYTMGRYRQAPGKERELVATITYGGGGTYYADSVKGRFTISRDNAKNTVYLQMNSLKAEDTAVYYCAKDHATVLSRWYRGMDYWGQGTQVTVSS | low polyreactivity |
| QVQLVETRGGLVQAGGILRFSCAASGFTFSSNDMGWYRQAPAKEREFVAVIDSGDITNYADSVKGRFTISRDNAKNTVYLQMNSLKPEDTAVYYCAARYYAAGIGSRYDYWGQGTQVTVSS | high polyreactivity |
| QVQLVETVGGLVQAGGSLRLRCAASGSIFLYNAMGWYRQAPGKERELFAVINGRGGTYYADSVKGRFTISRDNAKNTVYLQINSLKPEDTAVYYCATGYTPSAWYDSVRFEDRDSWGQGTQVTVSS | low polyreactivity |
| QVQLVETVGGLVQAGGSLRLSCAASGSTFYRYAMGWYRQAPGKERELVAAISSSGGSTYYADSVKGRFTISRDNAKNSVYLQMNSLKPEDSAVYYCNAARNFRYDYWGQGTQVTVSS | high polyreactivity |
| QVQLVETWGGLVQAGGTLRLSCAASGSIFSPYAMGWYRQAPGKERELVAAISRNGGTTYYADSVKGRFTISRDNAKNTVYLQMNSLKPEDTAVYYCARLYYTQKDSKTGYGYWGQGTQVTVSS | high polyreactivity |
| QVQLVEYVGGLVQAGGSLRLSCAASGRIFQYYARGWYRQAPGKERELVAAINSSGGRTYYADSVKGRFTISRDNAKNTVYLQMNSLKPEDTAVYDCNAVLSTRGMDYWGQGTQVTVSS | high polyreactivity |
| QVQLVEYWGALVQAGGTLRLSCAASGRIFGTNALAWNRQAPGKERELEATITRGGGNTYYADSVKGRFTISRDKAKYTVYLQMNSLKPEDTAVYYCAAKFHRFAWYSHYDDWGQGSQVTVSS | low polyreactivity |
| QVQLVGSGGGLLQAGASLRLSCAASGRIFRAYAMGWYRQAPGKERELVAAISWRSGSTYYADSVKGRFTISRDNAKTTVYLQMNSLKPEDTAVYYCAAYTNRVVNGYGYWGQGTQVTVSS | high polyreactivity |
| QVQLVKSGGGLVQAGGSLRLSCAASGIIFTDYGMGWYRQAPGKERELVAVISRGGTTKYADSVKGRFTISRDNAKNTVYLQMNSLQPEDTAVYYCAARTWAGRWYGLDFWGQGTQVTVSS | high polyreactivity |
| QVQLVKSGGGLVQAGGSLRLSCAASGSIFGYNTKGWYRQAPGKERELVATITYRGGSTYYADSVKGRFTISRDNAKNTVYLQMNRLKPEDTAVYYCARRVTRYPDTTWVSAGDYWGQGTQVTVSS | high polyreactivity |
| QVQLVKSGGGLVQAGGSLRLSCAASGSTFYNAMGWYRQAPGKERELVAAISIGGSTYYADSVKGRFTNSRDNAKNTVYLQMNSLKPEDTAVYYCNTETGPSPVPVYDTEFDSWGQGTQVTVSS | low polyreactivity |
| QVQLVQAGGGLVQAGGILRLSCAASGFTFQEYAMGWYRQAPGKAREFVAAITYSGGSTYADSVKGRFTISRDNAKNTVYLQMNSLKPEDTAVYYCNAQVYYSVRGYPYGYYRNDYWGQGTQVTVSS | low polyreactivity |
| QVQLVQSCRVLLQARGSHTLSCADSGTTFGINANGCYTHSPGKERELVAAITFISGSTNYADSVKGRFTISRDNAKNTVYLQMNSLKPEDTAVYYCAADSVYYAGYDVDYWGQGTQVTVSS | low polyreactivity |

| Sequence | polyreactivity (PSR sort gate) |
| --- | --- |
| QVQLVQSGGGLVQAGGRLRLSSAASGRTFEPNAMGWYRQAPGKERELVAAITNGGSTSYADSVKGRFTISRDNAKNSVYLQMNSLKPEDTAVYDFAGDLGRNLLHTYYYWGQGTQVTVSS | low polyreactivity |
| QVQLVQSGGGLVQAGGSLRLICAASGRTFYGNAMGWYRQAPGKERELVAAISRSGGRTYYADSVKGRFTISRDNAKNTVYLQMISLKTEDTAVYYCAKDYYYPSHTYGYWGQGTQVTVST | high polyreactivity |
| QVQLVQSGGGLVQAGGSLRLISAASGSIFRYNAMGWYRHAPGKEREFVAAITRSGGSTYADSVKGRFTISRDNAKNTLYLQIHSLKPEDTAVYYCAATFKWYSHSKPRFDYWGHGTQVTVSS | low polyreactivity |
| QVQLVQSGGGLVQAGGSLRLSCAASGFIIWDNAMGCYRQAPGKERELVAAISDSGGDTYYADSVKGRFTISRDNAKNTVYLQMNSLKPEDTAVYYCASDVELWVFRGDQYDYWGQGTQVTVSS | low polyreactivity |
| QVQLVQSGGGLVQAGGSLRLSCAASGGTFQHNTMGWYRQAPGKEWQLVAAIRGSDGSTYYADSVKGRFTISRDNAKNTVYLQMNSLKPEDTAVYYCNRAYTASYIPGVGFWGQGTQVTVSS | high polyreactivity |
| QVQLVQSGGGLVQAGGSLRLSCAASGITFWGNAMGSYRQAPGKEREFIARINWSGGRTYYAESVKGRFTISRDNEKNNVYLQMNSLKPEDTAVYYCAATSLIYGYRTYDYWGQGTQVTVSS | high polyreactivity |
| QVQLVQSGGGLVQAGGSLRLSCAASGRIFGSYAMGWSRQAPGKERELGAAISYSGGSTYYADSVKGRFTMSRDNAKNTVYLQMHSLKPEDTAVYYCNVDRYYGYFSVRGGYWGQGTQGTVSS | low polyreactivity |
| QVQLVQSGGGLVQAGGSLRLSCAASGRIFRPNAMGWYRQAPGKERELVAAISSGGSTYYADSVKGRFTISRDNAKNTVYFQMYSLKPEDTAVDYCAADRSNRPYYRQGYDYWGQGTQVTVSS | high polyreactivity |
| QVQLVQSGGGLVQAGGSLRLSCAASGRIIGWYAMGWYRQAPGKERELVAAITWSGTSTYYADSVKGRFTISRDNAKNTVYLQMNSLKPEDTAVYYCAADSLPASAPTYYTTLESWGQGTQVTVSS | low polyreactivity |
| QVQLVQSGGGLVQAGGSLRLSCAASGSTNRYYAMGLYRQAPGKERELVAAITKSGGSTYYADSVKGRFTISRDNAKNTVYLQMNSLKPEDTAVVYCAAVRGWYSPALSEHDYWGQGTQVTVSS | low polyreactivity |
| QVQLVQSGGGLVQAGGSLRLSCADSGGTFRVYAMGSYRQAPGKERQLVASISWSSGITYYADSVKGRFTISRDNAKNTVYLQMNSLKPEDTAVYYCAAEGHVTYGAPGRLYRMGYWGQGTQVTVSS | low polyreactivity |
| QVQLVQSGGGLVQAGGSLSLSCAASGSTFARNTMGWYRQAPGKERELVAAISYSGVTTYYADSVKGRFPISRDNEKNTVYLQMNSLKPEDTAVYYCAKLPYRRVDYGYWGQGTQVTVSS | high polyreactivity |
| QVQLVQSGGGLVQAGGSLSLSCAASGSTFSTYAMGWYRQAPGKERELVATISKSGGSTYYSDSVKGRFTISRDNAKNTVYLQMNSLKPEDTAVYYCNARYQSRYFIYDYWGQGTQVTVSS | high polyreactivity |
| QVQLVQSGGGLVQAGGTLRLTCAASGSTYAVYAMGWYRQAPGKERELVATIRGRGGSTYYADSVKGRFTISRDYAKNTVYLQMNSLKPEDTAVYYCAADSYPSLGKYDSWGQGTQVTVSS | high polyreactivity |
| QVQLVQSGGGLVQERGSLRLSCAASGRIFVKYTMGWSRQAPGKERELVAAIDFDTDSTYYADSVTGRFTISRDNAKNTVYLQMYSLKPEDTAVYYCATGYLYFTSYRYNYWGQGTQVTVSS | low polyreactivity |
| QVQLVQSRGGLVQAGGSLRLSCAASGRTFVYNAMGWYRPAPGKERELVAAIDGGGDRTYYADSVKGRFTISRDNAKNTVYLQMNSLKPEDTAVYYCARDPGDTYYYSYPEGDYWGLGTQVTVSS | low polyreactivity |
| QVQLVVSGGGLVQAGGSLRLSCAASGRIFVINAMGWYRQAPGNERELVAAITWIGGTTYYADSVKGRFTISRDNAKNTVYLQLNSLKREDTAVYYCARQRSYGRSSYSYGYDYWGQGTQVTVSS | high polyreactivity |
| QVQLVVSGGGLVQAGGSLRLSCAASGRTFPGNAMGGYRQAPGKERELVASINGRTTRTYYADSVKGRFTISRDNAKNTVYLQMNSLKPEDTAVYYCAADPPGYVYGKRYYWGQGTQVTVSS | high polyreactivity |
| QVQLVVSGGGLVQAGGSLRLSCAASGRTFYANAMGWYRQAPGKERELVAAISTGGDGTYYADSVKGRFTISRDNAKNTVYLQMNSLKPEDTADYYCAVRHRASGILYDYWGQGTQVTVSS | low polyreactivity |
| QVQLVVSGGGLVQAGGSLRLSCAASGSIFYFNAMGWYRQAPGKERELVASITSGGSTNYADSVKGRFTISRDNAKTTVYLQLISLKPEDTAVYYFNAYTWGVGSSLDDVGYWGQGTQVTGSS | low polyreactivity |
| QVQLVVSGGGLVQAGGSLRLSCAASGSMLYKYAMGWYRQPPGKEREFVAAISSSGGITYYADSVKGRFTISRDNAKNTVYLQMNSLKPEDTAVYYCAARTRSQFGHGYWGQGTQVTVSS | high polyreactivity |

— the nanobody polyreactivity screen of Harvey et al. (2022)
